Molecular target: T1, IRAK4 (Homo sapiens, UniProt Q9NWZ3)
T1 sequence (Q9NWZ3 1-460): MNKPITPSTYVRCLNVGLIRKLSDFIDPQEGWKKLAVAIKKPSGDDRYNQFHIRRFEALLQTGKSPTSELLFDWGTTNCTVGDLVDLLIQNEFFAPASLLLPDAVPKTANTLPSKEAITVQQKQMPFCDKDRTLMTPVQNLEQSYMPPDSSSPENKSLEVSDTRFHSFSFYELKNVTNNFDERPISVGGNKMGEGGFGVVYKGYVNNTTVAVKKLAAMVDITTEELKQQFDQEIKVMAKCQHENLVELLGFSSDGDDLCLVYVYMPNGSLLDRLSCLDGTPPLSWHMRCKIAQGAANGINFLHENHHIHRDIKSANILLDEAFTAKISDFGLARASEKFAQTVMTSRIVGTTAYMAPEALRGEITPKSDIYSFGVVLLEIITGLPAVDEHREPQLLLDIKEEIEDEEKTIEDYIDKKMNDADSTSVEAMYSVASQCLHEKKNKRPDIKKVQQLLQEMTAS
Assay: mRNA display affinity selection against IRAK4, NGS abundance
Assay type: binding
Design: acids 1-460; NP_057207.2) was purchased from Carna Biosciences; purchased Carna Biosciences (Kobe, Japan)
Settings: Top100 selection hits, NGS

Row | Sequence | Library fraction (IRAK4 selection pulldown (+)) | Raw reads (IRAK4 selection pulldown (+)) | Library fraction (IRAK4 selection pulldown (-)) | Raw reads (IRAK4 selection pulldown (-))
1 | TCLWKRRIYS | 0.0001 | 10 | – | –
2 | TLCWKRRTWK | 0.026 | 2745 | 0.018 | 2408
3 | TLCWRRRNYK | 0.024 | 2567 | 0.011 | 1518
4 | TLLWKRRIYK | 0.0019 | 207 | 0.00132 | 176
5 | TLLWKRRNWA | 0.0007 | 76 | 0.00043 | 57
6 | TMKRIVINWGWG | – | – | 0.0001 | 14
7 | TMLWKRRIHA | 0.003 | 323 | 0.00136 | 181
8 | TMLWKRRIYR | 0.044 | 4661 | 0.029 | 3881
9 | TMLWKRRLFR | 0.0001 | 9 | – | –
10 | TMRWKRRNWA | – | – | 0.00026 | 35
11 | TQFWKRRNYA | 0.0002 | 26 | 7e-5 | 10
12 | TQRVRNRCYK | 0.013 | 1424 | 0.00437 | 584
13 | TQRWKCRLYR | 0.0001 | 12 | – | –
14 | TQRWKHRLYK | 0.0006 | 68 | 0.00032 | 43
15 | TQRWKQKNWS | 0.0001 | 9 | – | –
16 | TQRWKRRNYT | 0.0013 | 136 | 0.0006 | 80
17 | TQRWNNRNWC | 0.0003 | 29 | 0.00014 | 19
18 | TQRWRARNYK | 0.006 | 624 | 0.00431 | 576
19 | TQRYLSKNYK | 0.0001 | 12 | 0.00025 | 33
20 | TQRYRWRNYK | 0.0001 | 9 | – | –
21 | TQYWKRRIYN | 0.007 | 748 | 0.00241 | 322
